Laboratory results published in patent US20240279618A1, “RECEPTOR TYROSINE KINASE AGONIST, COMPOSITION FOR CELL CULTURE MEDIUM, AND […] MAINTENANCE COMPOSITION” (SEKISUI CHEMICAL CO., LTD., priority 2021, published 2024).

B1: #1-L4-#1: dimer of VHH #1 with linker L4 (GSEGKSSGSGSESKST), SEQ ID NO: 23 (protein)
VHH: QLQLVESGGGSVQAGGSLRLSCAASRSLSRFNVWTWYRQAPVKQRELVASITKSGDTNYAESVKGRFIISRDDDKNTVYLQMNNLKSEDTGIYYCAGSYYSGSYLYPSPGGFSVWGQGTQVTVSSGSEGKSSGSGSESKSTQLQLVESGGGSVQAGGSLRLSCAASRSLSRFNVWTWYRQAPVKQRELVASITKSGDTNYAESVKGRFIISRDDDKNTVYLQMNNLKSEDTGIYYCAGSYYSGSYLYPSPGGFSVWGQGTQVTVSS
modifications: #1-L4-#1
B2: VHH Clone #2: alpaca-derived VHH single-domain antibody (monomer) binding FGFR1, amino acid sequence SEQ ID NO: 18 (protein)
VHH: QVQLVESGGGLVQAGGSLRLSCAVPGSIFRFNTMGWYRQPPGKQRELVAQMSRGGITKYGDSVKGRFTITRDNAKNTVHLQMNSLKPEDTAVYYCAGSYYSGSYYYPSPQGFSVWGQGTQVTVSP
modifications: VHH_Clone_#2
B3: VHH Clone #1: alpaca-derived VHH single-domain antibody (monomer) binding FGFR1, amino acid sequence SEQ ID NO: 17 (protein)
VHH: QLQLVESGGGSVQAGGSLRLSCAASRSLSRFNVWTWYRQAPVKQRELVASITKSGDTNYAESVKGRFIISRDDDKNTVYLQMNNLKSEDTGIYYCAGSYYSGSYLYPSPGGFSVWGQGTQVTVSS
modifications: VHH_Clone_#1

Columns and labels:
iPS cells (253G1 cells) = test: iPS cell culture: evaluation of preservation stability; format: cell-based, human; conditions: stock preserved 3 or 4 weeks at 4° C. versus −80° C.; 20 ng/mL
Method: Basic FGF and VHH stocks were collected in a 1.5 mL microtube 3 or 4 weeks before culturing, and preserved in a refrigerator (4° C.). Hereinafter, all operations were the same as those in the cell growth evaluation procedure, except that for basic FGF and VHH, a medium was prepared so that the both were preserved at 20 ng/mL using both refrigeration (4° C.)- and freeze (−80° C.)-preservation conditions.

[1] = system: human bone marrow-derived MSC; test: MSC: evaluation of fat differentiation induction (Oil Red O); format: cell-based; conditions: MSC after 3-passage subculture with 20 ng/ml additive, 14 days induction
Method: A third passage was performed in a CellBIND(R) 24-well transparent multi-well plate (Corning, C/N: 3337), and then at a time of reaching 80% to 90% confluence, medium exchange was performed in MesenCult Stem Cell Adipogenic Differentiation Medium (PromoCell, C/N: C-28016) which is a medium for differentiation induction. Furthermore, for the cells as a negative control, D-MEM (10% FBS or 20% FBS) was used for the medium exchange. The medium exchange was carried out every 2 to 4 days.
After 14 days from seeding, a 4% paraformaldehyde/phosphate buffer solution was added thereto at 500 μL/well, and the cells were left to stand for 2 hours or longer. After the immobilization, purified water was added thereto at 500 μL/well. An Oil Red stock liquid (Cosmo Bio Co., Ltd., C/N: AK09F) and purified water were mixed at a ratio of 6:4, and the mixture was left to stand at room temperature for 10 to 15 minutes. Thereafter, the filtrate was filtered through a membrane filter having a pore size of 0.5 to 1.0 μm, and the filtrate was used as an Oil Red O liquid. 500 μL of the Oil Red O liquid was added to each well and the mixture was left to stand at room temperature for 15 minutes. […] 100 μL of the eluate was transferred to a 96-well plate and the absorbance at 520 nm was measured. […]

[2] = system: phospho-p44/42 MAPK (Erk½); test: Agonist activity by In Cell ELISA in NIH3T3 cells; format: cell-based, mouse; conditions: 30 minutes stimulation, final dilution ratio 100-fold, relative to no stimulus = 1
Source text: In order to verify the agonist activity of the purified VHH (monomer), the expression level of phospho-p44/42 MAPK (Erk½) was […] by using an In Cell ELISA method. VHH (monomer) was allowed to act on the cells such that the final dilution ratio was 100-fold. In addition, as a positive control, FGF2 (fibroblast growth factor (basic) (FGF-basic/bFGF/FGF2), human, recombinant, animal-derived substance-free (154aa): product code 068-05384; manufactured by Fujifilm Wako Pure Chemical Corporation: final concentration: 100 ng/mL) was used. The experimental procedure was as described below.
A D-MEM (D6429, manufactured by Sigma-Aldrich Co., LLC) medium including a 10% fetal bovine serum (S0400, manufactured by BWT) and 1% Penicillin-Streptomycin Mixed Solution, 26253-84, manufactured by Nacalai Tesque, Inc.) was prepared, NIH3T3 (CRL1658, ATCC) was suspended therein, and the suspension was seeded on a 96-well plate for cell culture at 1× 10^4 cells/well and cultured overnight at 37° C. with light shielded in a 5% CO2 incubator. The medium in each well was removed and the inside of each well was washed with a serum-free medium. […]

Row | Molecule | growth performance of iPS cells with additive preserved at 4° C. (iPS cells (253G1 cells)) | differentiation into the fat cell line (Oil Red O) [1] | agonist activity (expression level of phospho-p44/42 MAPK (Erk½)) [2]
1 | FGF2: fibroblast growth factor (basic), human, recombinant (154aa), positive control; SEQ ID NO: 58 [reference compound] | growth performance was significantly deteriorated | Differentiation was similarly recognized | 
2 | B1 | exhibited growth performance similar to that of VHH preserved at −80 °C | Differentiation was similarly recognized | 
3 | B2 |  |  | none of the VHHs (monomers) have an agonist activity
4 | B3 |  |  | none of the VHHs (monomers) have an agonist activity
